# Laboratory results taken from paper PMC3419727, “Identifying the Hotspots on the Top Faces of WD40-Repeat Proteins from Their Primary Sequences by β-Bulges and DHSW Tetrads” (PLoS ONE, 2012).
# Changes are numbered by the printed parent chain.
# T1: S. japonicus Tup11 WD40 domain (amino acids 301–630), wild type (S. japonicus, UniProt B6JV84 301-630)
# T1 chain: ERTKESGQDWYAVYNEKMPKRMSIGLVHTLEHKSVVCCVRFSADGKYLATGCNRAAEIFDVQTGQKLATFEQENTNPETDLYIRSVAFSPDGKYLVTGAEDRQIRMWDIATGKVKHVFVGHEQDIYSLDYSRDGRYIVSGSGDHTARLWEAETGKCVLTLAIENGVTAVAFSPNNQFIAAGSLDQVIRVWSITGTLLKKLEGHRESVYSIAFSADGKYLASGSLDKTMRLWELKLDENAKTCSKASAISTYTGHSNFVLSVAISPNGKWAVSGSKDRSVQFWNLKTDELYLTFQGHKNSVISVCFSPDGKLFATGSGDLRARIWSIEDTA
# T2: S. japonicus Tup11 WD40 domain (301–630) Tyr426Ala (S. japonicus, UniProt B6JV84 301-630, Tyr426 substituted by Ala)
# T2 construct: Tup11, S. japonicus, WD40 domain, amino acids 301-630
# T2 sequence (looked up): T1 chain with Y126A
# B1: C-terminal region of S. pombe Fep1 (amino acids 319–564) (domain or fragment, UniProt Q10134 319-564, looked up)
# chain: AAGEPDNNGKVYYSYGPTQEQSILPLPENKHEGLPPYQNEYVPNGIRANQVVYPGQLVAVGNDSSKQLSESTTSNTDNNGVATANQSNPLGMKFHLPPILPVGESVCLPPRTSAKPRIAEGIASLLNPEEPPSNSDKQPSMSNGPKSEVSPSQSQQAPLIQSSTSPVSLQFPPEVQGSNVDKRNYALNVLSQLRSQHDLMIQELHNLNQHIQQIDEWLRSSDNENMASEHIKSSTPAVVASGALQT
# notes: Fep1, GATA-factor, S. pombe, C-terminal region, amino acids 319-564
# Key:
# [1] = target: T1, S. japonicus Tup11 WD40 domain (amino …); assay: ITC
# [2] = target: T2, S. japonicus Tup11 WD40 domain …; assay: ITC; Fep1 (~1.4 mM) injected, 2 µl each time, into Tup11 WT or mutant (~0.2 mM); 25°C; 1×PBS pH 7.4, 150 mM NaCl; iTC200 (MicroCal); Fep1 into buffer subtracted as background; conditions: both partners purified
binder,measurement,setting,value
B1,Ka,[1],70000 M⁻¹
same,binding result,[2],binds
